Measured values published in patent US20200317768A1 (published 2020).
Where a chain is given by its changes, count along the chain named. Each block holds one binder with its values, some of them ahead of it.

Tests used:
[1] = biological target: T1, cynomolgus monkey FcγRIIb extracellular domain with C-terminal His-tag (cynomolgus monkey); test: SPR (BIACORE), antibody captured, FcgR analyte
T1 construct: also called cyno FcgRIIb; cynoFcγRIIb
T1 chain: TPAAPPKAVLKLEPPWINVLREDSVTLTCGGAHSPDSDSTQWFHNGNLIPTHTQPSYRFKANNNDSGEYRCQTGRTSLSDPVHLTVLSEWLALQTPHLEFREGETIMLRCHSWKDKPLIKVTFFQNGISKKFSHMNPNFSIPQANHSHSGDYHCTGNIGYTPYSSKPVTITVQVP

[2] = biological target: T2, human FcγRIIIaV extracellular domain with C-terminal His-tag (human, UniProt P08637 17-208); test: SPR (BIACORE); KD of SG1 / KD of variant;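 further: relative to parent M103205H795-SG1 carrying the SG1 human heavy chain constant region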
T2 construct: also called human FcgRIIIaV
T2 sequence (P08637 17-208 F176V): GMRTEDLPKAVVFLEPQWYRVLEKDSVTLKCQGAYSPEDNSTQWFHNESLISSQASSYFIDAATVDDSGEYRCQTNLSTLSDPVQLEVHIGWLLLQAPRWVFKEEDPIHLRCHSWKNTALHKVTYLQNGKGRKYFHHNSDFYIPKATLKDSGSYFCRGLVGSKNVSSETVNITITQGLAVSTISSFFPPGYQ

[3] = biological target: T3, cynomolgus monkey FcγRIIIaS extracellular domain with C-terminal His-tag (cynomolgus monkey, UniProt Q8SPW2 21-206 at identity 1.00)); test: SPR (BIACORE); KD of SG1 / KD of variant;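 further: relative to parent M103205H795-SG1 carrying the SG1 human heavy chain constant region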
T3 construct: also called cyno FcgRIIIaS; cynoFcγRIIIaS
T3 chain: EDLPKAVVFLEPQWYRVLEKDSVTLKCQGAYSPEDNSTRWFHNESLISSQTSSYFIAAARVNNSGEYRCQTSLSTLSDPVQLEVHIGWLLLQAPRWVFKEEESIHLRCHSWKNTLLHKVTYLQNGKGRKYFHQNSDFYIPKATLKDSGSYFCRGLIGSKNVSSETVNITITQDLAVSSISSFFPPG

[4] = biological target: T1, cynomolgus monkey FcγRIIb extracellular …; test: SPR (BIACORE); KD of SG1 / KD of variant;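 further: relative to parent M103205H795-SG1 carrying the SG1 human heavy chain constant region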
[5] = biological target: T4, cynomolgus monkey FcγRIIa2 extracellular domain with C-terminal His-tag (cynomolgus monkey); test: SPR (BIACORE); KD of SG1 / KD of variant;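 further: relative to parent M103205H795-SG1 carrying the SG1 human heavy chain constant region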
T4 construct: also called cyno FcgRIIa2; cynoFcγRIIa2
T4 chain: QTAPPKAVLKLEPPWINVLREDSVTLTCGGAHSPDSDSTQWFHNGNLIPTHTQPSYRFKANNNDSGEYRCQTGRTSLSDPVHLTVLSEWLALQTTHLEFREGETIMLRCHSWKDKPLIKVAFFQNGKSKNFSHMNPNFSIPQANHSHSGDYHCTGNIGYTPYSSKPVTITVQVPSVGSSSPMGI

[6] = biological target: T5, cynomolgus monkey FcγRIIa3 extracellular domain with C-terminal His-tag (cynomolgus monkey); test: SPR (BIACORE); KD of SG1 / KD of variant
T5 construct: also called cyno FcgRIIa3; cynoFcγRIIa3
T5 chain: T4 chain with K127I, N130K, H133P, Q142R

[7] = biological target: T6, cynomolgus monkey FcγRIIa1 extracellular domain with C-terminal His-tag (cynomolgus monkey); test: SPR (BIACORE); KD of SG1 / KD of variant
T6 construct: also called cyno FcgRIIa1; cynoFcγRIIa1
T6 chain: T4 chain with T95P, A121T, K127I, S128A, N130K, N135D, Q142R

[8] = biological target: T7, human FcγRIIaH extracellular domain with C-terminal His-tag (human, UniProt P12318 34-217); test: SPR (BIACORE); KD of SG1 / KD of variant
T7 construct: also called human FcgRIIaH; FcγRIIa (type H)
T7 sequence: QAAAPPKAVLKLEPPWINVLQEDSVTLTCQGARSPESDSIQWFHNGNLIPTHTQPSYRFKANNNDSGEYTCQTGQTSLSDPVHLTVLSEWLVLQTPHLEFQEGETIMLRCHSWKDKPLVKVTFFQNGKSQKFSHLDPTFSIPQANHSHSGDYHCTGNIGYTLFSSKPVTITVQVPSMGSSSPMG

[9] = biological target: T8, human FcγRIIb extracellular domain with C-terminal His-tag (human, UniProt P31994 43-217); test: SPR (BIACORE); KD of SG1 / KD of variant
T8 construct: also called human FcgRIIb
T8 sequence: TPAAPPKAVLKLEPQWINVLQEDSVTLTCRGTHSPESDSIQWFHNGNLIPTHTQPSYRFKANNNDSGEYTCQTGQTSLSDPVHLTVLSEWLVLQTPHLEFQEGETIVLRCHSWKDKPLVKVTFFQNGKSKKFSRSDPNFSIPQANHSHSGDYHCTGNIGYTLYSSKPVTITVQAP

B1: M103205H795-MY528/M103202L889-SK1 (antibody, human IgG1, kappa)
heavy: QVTLKESGPVLVKPTETLTLTCTVSGIDLSHDDISWVRQAPGKGLEWVGIISYAGSTYYASWAKGRLTISKDTSKNQVVLTMTNMDPVDTATYYCARGVPAYSHGGDLWGQGTLVTVSSASTKGPSVFPLAPSSKSTSGGTAALGCLVKDYFPEPVTVSWNSGALTSGVHTFPAVLQSSGLYSLSSVVTVPSSSLGTQTYICNVNHKPSNTKVDKKVEPKSCDKTHTCPPCPAPEWLTGPSVFLFPPKPKDTLMISRTPEVTCVVVDVSDEDPEVKFNWYVDGVEVHNAKTKPREEQYNSTYRVVSVLTVLHQDWLNGKEYKCKVSNKALPKPIEKTISKAKGQPREPQVYTLPPSREEMTKNQVSLTCLVKGFYPSDIAVEWESNGQPENNYKTTPPVLDSDGSFFLYSKLTVDKSRWQQGNVFSCSVMHEALHNHYTQKSLSLSP
light: DIVMTQSPATLSLSPGERATLSCTSSQSVYHANWLSWFQQKPGQPPKLLIYWASTLAYGVPSRFSGSGSGTDFTLTISSLQPEDAATYYCAGGYGGGRYAFGQGTKVEIKRTVAAPSVFIFPPSDEQLKSGTASVVCLLNNFYPREAKVQWKVDNALQSGNSQESVTEQDSKDSTYSLSSTLTLSKADYEKHKVYACEVTHQGLSSPVTKSFNRGEC
notes: Substitutions introduced into M103205H795-SG1, expressed with M103202L889-SK1 as light chain; EU numbering
Kd [1]: 410 nM
KD fold (SG1 = 1) [2]: 0.19 fold
KD fold (SG1 = 1) [3]: 0.15 fold
KD fold (SG1 = 1) [4]: 4.4 fold
KD fold (SG1 = 1) [5]: 3.4 fold
KD fold (SG1 = 1) [6]: 5.3 fold
KD fold (SG1 = 1) [7]: 2.3 fold
KD fold (SG1 = 1) [8]: 2 fold
KD fold (SG1 = 1) [9]: 2.1 fold

B3: M103205H795-MY532/M103202L889-SK1 (antibody, human IgG1, kappa)
heavy: B1 heavy with S241V
light: B1 light
notes: as for B1
Kd [1]: 230 nM
KD fold (SG1 = 1) [2]: 0.43 fold
KD fold (SG1 = 1) [3]: 0.42 fold
KD fold (SG1 = 1) [4]: 7.8 fold
KD fold (SG1 = 1) [5]: 8.5 fold
KD fold (SG1 = 1) [6]: 23 fold
KD fold (SG1 = 1) [7]: 4.2 fold
KD fold (SG1 = 1) [8]: 3.3 fold
KD fold (SG1 = 1) [9]: 5.5 fold

B4: M103205H795-MY530/M103202L889-SK1 (antibody, human IgG1, kappa)
heavy: B1 heavy with W236L, K328T
light: B1 light
notes: as for B1
Kd [1]: 320 nM
KD fold (SG1 = 1) [2]: 0.23 fold
KD fold (SG1 = 1) [3]: 0.42 fold
KD fold (SG1 = 1) [4]: 5.6 fold
KD fold (SG1 = 1) [5]: 4.6 fold
KD fold (SG1 = 1) [6]: 6.8 fold
KD fold (SG1 = 1) [7]: 2.3 fold
KD fold (SG1 = 1) [8]: 4.1 fold
KD fold (SG1 = 1) [9]: 2.5 fold

The remaining binders from weak to strong by Kd [1], led by results:

Kd [1]: 390 nM
KD fold (SG1 = 1) [2]: 0.2 fold
KD fold (SG1 = 1) [3]: 0.16 fold
KD fold (SG1 = 1) [4]: 6 fold
KD fold (SG1 = 1) [5]: 3.6 fold
KD fold (SG1 = 1) [6]: 5.3 fold
KD fold (SG1 = 1) [7]: 3.2 fold
KD fold (SG1 = 1) [8]: 3 fold
KD fold (SG1 = 1) [9]: 3.3 fold
B2: M103205H795-MY529/M103202L889-SK1 (antibody, human IgG1, kappa)
heavy: B1 heavy with Q297L
light: B1 light
notes: as for B1

Kd [1]: 270 nM
KD fold (SG1 = 1) [2]: 0.25 fold
KD fold (SG1 = 1) [3]: 0.36 fold
KD fold (SG1 = 1) [4]: 6.7 fold
KD fold (SG1 = 1) [5]: 3.5 fold
KD fold (SG1 = 1) [6]: 7.7 fold
KD fold (SG1 = 1) [7]: 2.9 fold
KD fold (SG1 = 1) [8]: 2.4 fold
KD fold (SG1 = 1) [9]: 3.2 fold
B5: M103205H795-MY531/M103202L889-SK1 (antibody, human IgG1, kappa)
heavy: B1 heavy with K328T
light: B1 light
notes: as for B1
